Assay: label from the status in PepcDB records

Sequence	protein production
MSIVIVGGNERMVCQYEDICKGYGCKAKVFAKEKGAMKKKIGAPDLMILFTGTVSHKMVNCAVEEAKKKSIPVCRCHTSSASALESILREYCALEHHHHHH	failed
MSIYNSIGKQYSQTRVPDIRIVNAIINLLNLPKGSVIADIGAGTGGYSVALANQGLFVYAVEPSIVMRQQAVVHPQVEWFTGYAENLALPDKSVDGVISILAIHHFSHLEKSFQEMQRIIRDGTIVLLTFDIRLAQRIWLYDYFPFLWEDALRFLPLDEQINLLQENTKRRVEAIPFLLPHDLSDLFAAAAWRRPELYLKAEVRAGISSFALANQDLVEKGLELLTADLNNGEWIRKYGEIHHLQEIDIGYRFIYTTLDK	not failed
MSKANVYQQRPEPGVHAESPLHHAELHKLAGKTAAKAGIVLREKKLLGHLVLRGDAADPAFAAAVHQALGLELPVALTLVASGETSLQWLAPDEWLLIVPGGEEYAVEQRLRQALGEELHYAVVNVSGGQTLLELSGANVRELLMKSTSYDVHPSNFPVGKAVGSIFAKSQCVIRHTGEDTWELVVRRSFADYFWLWLQDASAEYGLQVAA	failed
MSKAQKRKRLNKYDGESKTPANKSTVDGGNPYPTLLRPTAEECRDVRDALLSLHGFPPEFANYRRQRLRSFSAVDDHDTQCNLKSETLNETEEESVLDGLVKILLSQNTTESNSQRAFASLKATFPKWDDVLNAESKSIENAIRCGGLAPKKAVCIKNILNRLQNERGRLCLEYLRGLSVEEVKTELSHFKGVGPKTVSCVLMFNLQHNDFPVDTHVFEIAKALGWVPKTADRNKTYVHLNRKIPDELKFDLNCLLYTHGKICSNCKKNVAKPKAKVASPDDCPLVGFYDLIV	failed
MSKAVLTTKVTPGYKDLPEVRYHFPRTYLNQVRQAVGDYILYYEPRRTTVELSSFGGRQSYFGVARVVDLVEDKDQADHYYALVDDYLDFDRPVPFVEGGHYYESALRKSDGSTNKGAFGRAVRLIPDAEFDQIWKAGFAPILGEETSRHQPRQFEISEPTVPFERPIIEMTISRPFRERSFMYNVRAAYENRCAMTGLRLINGGGRPEVQAAHIQPVAEKGPDSVRNGLALSGTVHWMFDRGLISIGDDYKILTAENHVPDDALRLLNHSRTINLPNDTAFYPNALFLKFHRDKIFKG	failed
MSKDFDLIIRNAYLSEKDSVYDIGIVGDRIIKIEAKIEGTVKDEIDAKGNLVSPGFVDAHTHMDKSFTSTGERLPKFWSRPYTRDAAIEDGLKYYKNATHEEIKRHVIEHAHMQVLHGTLYTRTHVDVDSVAKTKAVEAVLEAKEELKDLIDIQVVAFAQSGFFVDLESESLIRKSLDMGCDLVGGVDPATRENNVEGSLDLCFKLAKEYDVDIDYHIHDIGTVGVYSINRLAQKTIENGYKGRVTTSHAWCFADAPSEWLDEAIPLYKDSGMKFVTCFSSTPPTMPVIKLLEAGINLGCASDNIRDFWVPFGNGDMVQGALIETQRLELKTNRDLGLIWKMITSEGARVLGIEKNYGIEVGKKADLVVLNSLSPQWAIIDQAKRLCVIKNGRIIVKDEVIVA	not failed
MSKELLGVSAVGLMVLGEFCAIYSEVVVARLAHSGNTSGAELALPVLIMCLGGICLLAAYWLGYVAVGDIWIITVVSVTSLLLLEPLVIWALFQQAPGRGALIGFCLGALGMLSAVFL	failed
MSKFTDRIKNVFTVDYDDYDEDYYDDYEDDDMGLEPEKPEKKERATKSRSERFSARRAATRSDDDIIDDYDEVTAEHEEEPAPHVKTRATARAVKNSRSSRNHKVVPMKSSSEMEVCVIKPSYYENTRDIIDTLLEGKSVVLNLEGMKLDLAQRIVDSVSGGCYAIQGNLQKISGYIYLVTPHSVDITGDFQDLVHDSSDYSSTAYSRRNY	failed
MSKGRDILTKTIILALREVAPGLEAVLEAHLRATLNSGIELAYDDPQKFKEAVSKLFGEYSARLLEMVIISKLKGRLGEDIEANSLEELVSEIRKIYGE	not failed
MSKHVNWSGVFPAVTTQFNADFSVNLEETHTVISNLVRDGVSGLVVCGSVGENTSLTIEEKMAVTEVAKDASGGRVPVICGIAEFTSAGAAKVAKAVERVGVDGIMVMPALVYSSKPHETAEHFRSVASGTDLPVMVYNNPPIYRNDVTPDILVSLADCENIVCFKDSSGDTRRFIDVRNQVGERFILFAGLDDVVLESVAVGAQGWISGMSNVFPKEGETIFRLARAGRFAEAMPIYEWLMPILHLDARPDLVQCIKLCEQLAGRGSALTRPPRLALRGADREHVERIMAKALA	failed

From a protein production outcome set (Wang et al. 2014)
